Changes are numbered by the printed parent chain.

For one assay, the target named is Ssa1-WT (yeast, UniProt P10591 1-642). Description: ELISA. (In an ELISA, binding on a coated surface is turned into a signal by an enzyme label.)
In assay [1] the target is firefly luciferase (denatured) (firefly, UniProt P08659 1-550 = luciferase). Description: ELISA.
Sequence of firefly luciferase (denatured) (P08659 whole entry): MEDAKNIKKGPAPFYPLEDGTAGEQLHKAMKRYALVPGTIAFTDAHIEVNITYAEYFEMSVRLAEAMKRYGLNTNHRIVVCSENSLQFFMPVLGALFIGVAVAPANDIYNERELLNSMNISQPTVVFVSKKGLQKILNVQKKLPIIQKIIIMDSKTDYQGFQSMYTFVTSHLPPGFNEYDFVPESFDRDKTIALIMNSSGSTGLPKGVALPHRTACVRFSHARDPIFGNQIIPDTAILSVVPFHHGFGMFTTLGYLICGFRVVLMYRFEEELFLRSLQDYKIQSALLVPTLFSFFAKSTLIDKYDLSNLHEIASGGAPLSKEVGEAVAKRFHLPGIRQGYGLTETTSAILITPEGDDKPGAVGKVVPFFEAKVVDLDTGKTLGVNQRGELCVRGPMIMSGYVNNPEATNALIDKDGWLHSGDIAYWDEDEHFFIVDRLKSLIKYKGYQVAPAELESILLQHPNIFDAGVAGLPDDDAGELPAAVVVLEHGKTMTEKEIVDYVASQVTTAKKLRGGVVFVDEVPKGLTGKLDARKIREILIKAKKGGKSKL

Sequence of Ssa1-WT (P10591 whole entry): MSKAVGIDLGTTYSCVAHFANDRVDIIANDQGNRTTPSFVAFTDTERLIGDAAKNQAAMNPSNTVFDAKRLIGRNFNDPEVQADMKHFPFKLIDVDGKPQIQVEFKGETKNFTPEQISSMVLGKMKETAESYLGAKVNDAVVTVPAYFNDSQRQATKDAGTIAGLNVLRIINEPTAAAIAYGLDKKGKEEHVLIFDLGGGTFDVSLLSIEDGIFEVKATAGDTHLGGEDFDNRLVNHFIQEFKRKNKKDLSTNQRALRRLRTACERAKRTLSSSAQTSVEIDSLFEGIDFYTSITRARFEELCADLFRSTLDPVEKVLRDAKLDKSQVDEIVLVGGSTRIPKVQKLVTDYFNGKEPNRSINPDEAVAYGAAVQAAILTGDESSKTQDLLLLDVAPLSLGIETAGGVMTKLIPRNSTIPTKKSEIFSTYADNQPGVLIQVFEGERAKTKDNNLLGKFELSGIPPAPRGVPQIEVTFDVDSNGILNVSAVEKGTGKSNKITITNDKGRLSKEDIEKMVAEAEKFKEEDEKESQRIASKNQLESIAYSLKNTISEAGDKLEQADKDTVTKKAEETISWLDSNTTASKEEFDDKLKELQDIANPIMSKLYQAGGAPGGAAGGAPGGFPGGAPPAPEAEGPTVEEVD

B1: Sis1-WT (natural protein)
chain: MVKETKLYDLLGVSPSANEQELKKGYRKAALKYHPDKPTGDTEKFKEISEAFEILNDPQKREIYDQYGLEAARSGGPSFGPGGPGGAGGAGGFPGGAGGFSGGHAFSNEDAFNIFSQFFGGSSPFGGADDSGFSFSSYPSGGGAGMGGMPGGMGGMHGGMGGMPGGFRSASSSPTYPEEETVQVNLPVSLEDLFVGKKKSFKIGRKGPHGASEKTQIDIQLKPGWKAGTKITYKNQGDYNPQTGRRKTLQFVIQEKSHPNFKRDGDDLIYTLPLSFKESLLGFSKTIQTIDGRTLPLSRVQPVQPSQTSTYPGQGMPTPKNPSQRGNLIVKYKVDYPISLNDAQKRAIDENF
For the molecule B1, the binding result (with Ssa1-WT; in assay [1]) was “binds” each time.

B2: Sis1-[change] (natural protein)
chain: B1 chain with N56L
For B2, the binding result (in the assay with Ssa1-WT; in assay [1]) was “binds” in each case.

B3: Sis1-[change] (natural protein)
chain: B1 chain with S49V
Consider B3, for which the binding result (with Ssa1-WT; in assay [1]) was “binds” each time.

B4: Sis1-[change] (natural protein)
chain: B1 chain with E53K
As to B4, the binding result (with Ssa1-WT; in assay [1]) was “binds” in each case.

B5: Sis1-[change] (natural protein)
chain: B1 chain with E53A
Turning to B5, the binding result (with Ssa1-WT; in assay [1]) was “binds” in each case.

These data come from paper doi:10.1101/2025.05.02.651952 (bioRxiv, 2025).
